In article PMC8210318, “The HelQ human DNA repair helicase utilizes a PWI-like domain for DNA loading through interaction with RPA, triggering DNA unwinding by the HelQ helicase core” (NAR Cancer, 2021):

Key:
[1] = molecular target: the molecule itself; assay: SEC-MALS; HelQ with ATP-Mg2+: pre-incubated in 5 mM MgCl2 and 5 mM ATP at 37°C for 10 min, running buffer with 0.2 mM ATP and 0.2 mM MgCl2, Superdex-200
[2] = molecular target: the molecule itself; assay: SEC-MALS; HelQ apoenzyme, 200 ul of 2.4 uM monomer, Superdex-200, 50 mM Tris-HCl pH 8.0, 150 mM NaCl, 10% glycerol, pre-incubated 10 min at 37°C; no ATP-Mg2+
[3] = molecular target: the molecule itself; assay: SEC; analytical gel filtration of C-HelQ in ATP-Mg2+ and ssDNA, Superdex-200, against mass standards

Protein | stoichiometry N [1] | stoichiometry N [2] | stoichiometry N [3]
HelQ helicase, full length, human (enzyme, UniProt Q8TDG4 1-1101, looked up, human HelQ DNA repair helicase, full length; Tetramer as apoenzyme and dimer with ATP-Mg2+ by SEC-MALS; also called HelQ apoenzyme; His-SUMO-SF-tagged HelQ; source: SF9 insect cells (Bac-to-Bac baculovirus), purified (ammonium sulphate, Ni-NTA, heparin, Q-sepharose); not shown: His6, N-terminal, kept; SUMO, N-terminal, kept; StrepII-Flag, N-terminal, kept) MDECGSRIRRRVSLPKRNRPSLGCIFGAPTAAELVPGDEGKEEEEMVAENRRRKTAGVLPVEVQPLLLSDSPECLVLGGGDTNPDLLRHMPTDRGVGDQPNDSEVDMFGDYDSFTENSFIAQVDDLEQKYMQLPEHKKHATDFATENLCSESIKNKLSITTIGNLTELQTDKHTENQSGYEGVTIEPGADLLYDVPSSQAIYFENLQNSSNDLGDHSMKERDWKSSSHNTVNEELPHNCIEQPQQNDESSSKVRTSSDMNRRKSIKDHLKNAMTGNAKAQTPIFSRSKQLKDTLLSEEINVAKKTVESSSNDLGPFYSLPSKVRDLYAQFKGIEKLYEWQHTCLTLNSVQERKNLIYSLPTSGGKTLVAEILMLQELLCCRKDVLMILPYVAIVQEKISGLSSFGIELGFFVEEYAGSKGRFPPTKRREKKSLYIATIEKGHSLVNSLIETGRIDSLGLVVVDELHMIGEGSRGATLEMTLAKILYTSKTTQIIGMSATLNNVEDLQKFLQAEYYTSQFRPVELKEYLKINDTIYEVDSKAENGMTFSRLLNYKYSDTLKKMDPDHLVALVTEVIPNYSCLVFCPSKKNCENVAEMICKFLSKEYLKHKEKEKCEVIKNLKNIGNGNLCPVLKRTIPFGVAYHHSGLTSDERKLLEEAYSTGVLCLFTCTSTLAAGVNLPARRVILRAPYVAKEFLKRNQYKQMIGRAGRAGIDTIGESILILQEKDKQQVLELITKPLENCYSHLVQEFTKGIQTLFLSLIGLKIATNLDDIYHFMNGTFFGVQQKVLLKEKSLWEITVESLRYLTEKGLLQKDTIYKSEEEVQYNFHITKLGRASFKGTIDLAYCDILYRDLKKGLEGLVLESLLHLIYLTTPYDLVSQCNPDWMIYFRQFSQLSPAEQNVAAILGVSESFIGKKASGQAIGKKVDKNVVNRLYLSFVLYTLLKETNIWTVSEKFNMPRGYIQNLLTGTASFSSCVLHFCEELEEFWVYRALLVELTKKLTYCVKAELIPLMEVTGVLEGRAKQLYSAGYKSLMHLANANPEVLVRTIDHLSRRQAKQIVSSAKMLLHEKAEALQEEVEELLRLPSDFPGAVASSTDKA | 2 | 4 | 
C-HelQ, HelQ 'core' helicase (826 amino acids) (domain or fragment, human, UniProt Q8TDG4 275-1101, looked up, human HelQ helicase core: the 826 amino acids that match Hel308; excludes the 274 amino acid N-terminal region; 85 kDa; The start at 275 follows from the excluded 274 residue N-terminal region; also called core HelQ helicase; source: Escherichia coli, purified (as described for HelQ)) GNAKAQTPIFSRSKQLKDTLLSEEINVAKKTVESSSNDLGPFYSLPSKVRDLYAQFKGIEKLYEWQHTCLTLNSVQERKNLIYSLPTSGGKTLVAEILMLQELLCCRKDVLMILPYVAIVQEKISGLSSFGIELGFFVEEYAGSKGRFPPTKRREKKSLYIATIEKGHSLVNSLIETGRIDSLGLVVVDELHMIGEGSRGATLEMTLAKILYTSKTTQIIGMSATLNNVEDLQKFLQAEYYTSQFRPVELKEYLKINDTIYEVDSKAENGMTFSRLLNYKYSDTLKKMDPDHLVALVTEVIPNYSCLVFCPSKKNCENVAEMICKFLSKEYLKHKEKEKCEVIKNLKNIGNGNLCPVLKRTIPFGVAYHHSGLTSDERKLLEEAYSTGVLCLFTCTSTLAAGVNLPARRVILRAPYVAKEFLKRNQYKQMIGRAGRAGIDTIGESILILQEKDKQQVLELITKPLENCYSHLVQEFTKGIQTLFLSLIGLKIATNLDDIYHFMNGTFFGVQQKVLLKEKSLWEITVESLRYLTEKGLLQKDTIYKSEEEVQYNFHITKLGRASFKGTIDLAYCDILYRDLKKGLEGLVLESLLHLIYLTTPYDLVSQCNPDWMIYFRQFSQLSPAEQNVAAILGVSESFIGKKASGQAIGKKVDKNVVNRLYLSFVLYTLLKETNIWTVSEKFNMPRGYIQNLLTGTASFSSCVLHFCEELEEFWVYRALLVELTKKLTYCVKAELIPLMEVTGVLEGRAKQLYSAGYKSLMHLANANPEVLVRTIDHLSRRQAKQIVSSAKMLLHEKAEALQEEVEELLRLPSDFPGAVASSTDKA |  |  | 2
